Measurements taken from patent publication US20240207421A1, “NERVE TARGETING PEPTIDES AND METHODS OF USE” (ALUME BIOSCIENCES, INC., priority 2020, published 2024).

Each substance was assayed against Human Myelin Basic Protein (Homo sapiens, UniProt P02686) (assay: Phage display library screening (Example 2, Python script analysis), binding to Human Myelin Basic Protein). Conditions: R3 Myelin Basic Protein; combined unique sequence count, Python/R script analysis.
Human Myelin Basic Protein, sequence (P02686 134-304): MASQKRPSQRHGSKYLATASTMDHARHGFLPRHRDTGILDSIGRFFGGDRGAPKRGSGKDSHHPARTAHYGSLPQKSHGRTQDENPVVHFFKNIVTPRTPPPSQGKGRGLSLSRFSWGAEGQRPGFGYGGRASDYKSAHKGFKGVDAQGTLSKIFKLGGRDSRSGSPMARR
Parameters: Enzo 200-606-M001 from human; purchased Enzo 200-606-M001; host or cells: human brain (tissue-derived)
Description: Phage display library screens were used to identify peptides that bind to target proteins (including specific laminin trimers) that are expressed in human nerves, as described in Table 3. These screens were also carried out to identify peptides that could bind selectively to nerves versus muscle. Such peptides could therefore be useful for systemic in-vivo labeling of nerves during fluorescence assisted surgery. Specifically, m 13 phage libraries expressing 7 or 12 random amino acid peptides, or a cyclic peptide CX7C, on the N-terminus of the minor coat protein pIII (New England Biolabs; NEB) were processed through multiple rounds of selection for binding to target proteins expressed in nerves, or to excised human nerves, nerve extracts, or muscle, as described further below.
For screening against the specified target proteins in Table 1, including LN211, LN411, LN421, and LN521, the phage library was processed by up to 4 binding and wash cycles. For selection, phage libraries were incubated for up to 24 hours at 4° C. in 96 well plates that had been coated with one of the target proteins. Plates were then washed with PBS and phage were eluted using 0.2M glycine pH 2.0. Phage supernatants where then neutralized with Tris pH 9.0 prior to plating on TGI bacteria and LB agar plates. Colonies were counted to determine titer followed by DNA preparation of pools of phage and NextGen sequencing. After rounds of selection, phage were pooled and amplified for iterative selection. Phage that were bound at each round were sequenced. NextGen sequencing of pools after 2, 3 and 4 rounds of selection was used to isolate candidate sequences that were analyzed further to identify those that specifically bound each unique target protein.
Python Script Analysis: For all NEB sequence datasets, a python script was used to translate, trim, and filter the peptide sequences. The script translated the nucleotide sequences, translating amber codons as glutamine in peptide sequences, and then trimmed the end sequences that come from the vector. Secondly, the script combined the unique counts of trimmed peptides with identical sequences. […] Another python script was used to group peptides from different assays according to protein target (Myelin Protein Zero, Myelin Proteolipid Protein, Myelin Basic Protein, and Nidogen-2) and also combine the unique sequence counts for each peptide. An R script was written to merge the peptide sequences from different data files and determine peptides specific for each protein target but absent from different protein binding datasets. Peptide sequences were ranked by unique sequence count.
For “MPLLELP (R3 Myelin Basic Protein-binding peptide)”, the Count was 7.
With “TPLYLSS (R3 Myelin Basic Protein-binding peptide)” the Count was 7.
For “FVLPNKN (R3 Myelin Basic Protein-binding peptide)”, the Count was 8.
For “MQRLGAD (R3 Myelin Basic Protein-binding peptide)”, the Count was 6.
With “ALYNQMT (R3 Myelin Basic Protein-binding peptide)” the Count was 6.
In the case of “SIQTSAM (R3 Myelin Basic Protein-binding peptide)”, the Count is reported as 6.
Work on “LELHQNV (R3 Myelin Basic Protein-binding peptide)” yielded a Count of 6.
For “YSSRLND (R3 Myelin Basic Protein-binding peptide)”, the Count was 6.
In the case of “GPITHAI (R3 Myelin Basic Protein-binding peptide)”, the Count is reported as 7.
In the case of “SGPFPLV (R3 Myelin Basic Protein-binding peptide)”, the Count is reported as 6.
“VSFTLEP (R3 Myelin Basic Protein-binding peptide)” was tested, and the Count was 7.
For “TLLTALT (R3 Myelin Basic Protein-binding peptide)”, the Count was 7.
In the case of “SYTLSRS (R3 Myelin Basic Protein-binding peptide)”, the Count is reported as 7.
In the case of “QKALPQT (R3 Myelin Basic Protein-binding peptide)”, the Count is reported as 6.
For “HQPLFPR (R3 Myelin Basic Protein-binding peptide)”, the Count was 6.
In the case of “TGNLRLY (R3 Myelin Basic Protein-binding peptide)”, the Count is reported as 9.
With “TPVLWLP (R3 Myelin Basic Protein-binding peptide)” the Count was 6.
“TGSVSKQ (R3 Myelin Basic Protein-binding peptide)” gave a Count of 6.
For “ETHYKIA (R3 Myelin Basic Protein-binding peptide)”, the Count was 6.
For “MTNHGNA (R3 Myelin Basic Protein-binding peptide)”, the Count was 7.
“SKLAGFP (R3 Myelin Basic Protein-binding peptide)” was tested, and the Count was 6.
For “HSSATMS (R3 Myelin Basic Protein-binding peptide)”, the Count was 6.
In the case of “TPQVMLK (R3 Myelin Basic Protein-binding peptide)”, the Count is reported as 8.
Work on “ELKSLRF (R3 Myelin Basic Protein-binding peptide)” yielded a Count of 6.
With “LMLPQLE (R3 Myelin Basic Protein-binding peptide)” the Count was 6.
In the case of “YATATPS (R3 Myelin Basic Protein-binding peptide)”, the Count is reported as 8.
In the case of “KYRHGAE (R3 Myelin Basic Protein-binding peptide)”, the Count is reported as 7.
Work on “SYRSMAP (R3 Myelin Basic Protein-binding peptide)” yielded a Count of 6.
In the case of “IILPSAQ (R3 Myelin Basic Protein-binding peptide)”, the Count is reported as 8.
Work on “TPGRATL (R3 Myelin Basic Protein-binding peptide)” yielded a Count of 6.
Work on “AQFLTIY (R3 Myelin Basic Protein-binding peptide)” yielded a Count of 6.
Work on “HTGLRSL (R3 Myelin Basic Protein-binding peptide)” yielded a Count of 7.
In the case of “SIRMTEI (R3 Myelin Basic Protein-binding peptide)”, the Count is reported as 7.
“SEPGTVR (R3 Myelin Basic Protein-binding peptide)” gave a Count of 7.
With “SLKTTNP (R3 Myelin Basic Protein-binding peptide)” the Count was 6.
“QTSIMSG (R3 Myelin Basic Protein-binding peptide)” was tested, and the Count was 6.
With “HPDTLPQ (R3 Myelin Basic Protein-binding peptide)” the Count was 7.
“SKPHASH (R3 Myelin Basic Protein-binding peptide)” gave a Count of 6.
In the case of “LFRRVTE (R3 Myelin Basic Protein-binding peptide)”, the Count is reported as 7.
“HFYGPGP (R3 Myelin Basic Protein-binding peptide)” was tested, and the Count was 9.
“NMYPRVT (R3 Myelin Basic Protein-binding peptide)” showed a Count of 7.
Substance “GEPALVT (R3 Myelin Basic Protein-binding peptide)” has a Count of 6.
“FSAGVGK (R3 Myelin Basic Protein-binding peptide)” was tested, and the Count was 7.
In the case of “VPTLRIP (R3 Myelin Basic Protein-binding peptide)”, the Count is reported as 8.
In the case of “LPPQISR (R3 Myelin Basic Protein-binding peptide)”, the Count is reported as 8.
“NSSPHQI (R3 Myelin Basic Protein-binding peptide)” showed a Count of 7.
For “NTPKVLA (R3 Myelin Basic Protein-binding peptide)”, the Count was 10.
Work on “HSGPLLP (R3 Myelin Basic Protein-binding peptide)” yielded a Count of 6.
“FKLPWAS (R3 Myelin Basic Protein-binding peptide)” showed a Count of 7.
For “ALGTRPL (R3 Myelin Basic Protein-binding peptide)”, the Count was 7.
In the case of “QQAHLQS (R3 Myelin Basic Protein-binding peptide)”, the Count is reported as 8.
For “SAVLMPP (R3 Myelin Basic Protein-binding peptide)”, the Count was 6.
In the case of “SGNLKKA (R3 Myelin Basic Protein-binding peptide)”, the Count is reported as 7.
Substance “CPRMNNPLC (R3 Myelin Basic Protein-binding peptide)” has a Count of 7.
In the case of “YPTYLSY (R3 Myelin Basic Protein-binding peptide)”, the Count is reported as 6.
With “HPTGTPT (R3 Myelin Basic Protein-binding peptide)” the Count was 7.
“YPYVPIY (R3 Myelin Basic Protein-binding peptide)” gave a Count of 6.
Work on “HYSPNVM (R3 Myelin Basic Protein-binding peptide)” yielded a Count of 9.
With “SSMRYNS (R3 Myelin Basic Protein-binding peptide)” the Count was 6.
“FSARTNT (R3 Myelin Basic Protein-binding peptide)” gave a Count of 9.
“SLRSVGA (R3 Myelin Basic Protein-binding peptide)” gave a Count of 7.
With “NGVSSSL (R3 Myelin Basic Protein-binding peptide)” the Count was 6.
“AISWKGF (R3 Myelin Basic Protein-binding peptide)” gave a Count of 6.
With “IGTRWHQ (R3 Myelin Basic Protein-binding peptide)” the Count was 6.
Substance “NPTDTNK (R3 Myelin Basic Protein-binding peptide)” has a Count of 8.
Work on “SLDHLRL (R3 Myelin Basic Protein-binding peptide)” yielded a Count of 6.
For “DSYLLSA (R3 Myelin Basic Protein-binding peptide)”, the Count was 8.
Work on “WDLPQNR (R3 Myelin Basic Protein-binding peptide)” yielded a Count of 6.
With “ARVPNPL (R3 Myelin Basic Protein-binding peptide)” the Count was 6.
“QGAYVRP (R3 Myelin Basic Protein-binding peptide)” gave a Count of 6.
Substance “QPIDSTS (R3 Myelin Basic Protein-binding peptide)” has a Count of 7.
“RTTDWWT (R3 Myelin Basic Protein-binding peptide)” gave a Count of 6.
With “SLWQTLR (R3 Myelin Basic Protein-binding peptide)” the Count was 6.
“GVAEVGL (R3 Myelin Basic Protein-binding peptide)” was tested, and the Count was 6.
